Measured values as given in doi:10.1101/2025.09.10.675349 (bioRxiv, 2025).

B1: Staphylococcus aureus serine protease-like protein B (SplB), recombinant, catalytically active (enzyme, UniProt Q2FFT0 37-240, looked up)
chain: ENNVTKVKDTNIFPYTGVVAFKSATGFVVGKNTILTNKHVSKNYKVGDRITAHPNSDKGNGGIYSIKKIINYPGKEDVSVIQVEERAIERGPKGFNFNDNVTPFKYAAGAKAGERIKVIGYPHPYKNKYVLYESTGPVMSVEGSSIVYSAHTESGNSGSPVLNSNNELVGIHFASDVKNDDNRNAYGVYFTPEIKKFIAENIDK
B2: Catalytically inactive SplB mutant (S193A), recombinant (enzyme, UniProt Q2FFT0 37-240, looked up)
chain: ENNVTKVKDTNIFPYTGVVAFKSATGFVVGKNTILTNKHVSKNYKVGDRITAHPNSDKGNGGIYSIKKIINYPGKEDVSVIQVEERAIERGPKGFNFNDNVTPFKYAAGAKAGERIKVIGYPHPYKNKYVLYESTGPVMSVEGSSIVYSAHTESGNAGSPVLNSNNELVGIHFASDVKNDDNRNAYGVYFTPEIKKFIAENIDK

Target: the molecule itself
Assay: SEC

Row | Protein | binding result
1 | B1 | binds
2 | B2 | binds
